The Km is the concentration of substrate that gives half-maximal velocity.

Experiment in all cases: purified protein
Common to all, as to type: biochemical, Cellulomonas fimi

Substrate in data set [1]: O=[N+]([O-])c1ccc(O[C@@H]2O[C@@H](CO)[C@H](O)[C@H]2O)cc1
The conditions noted are these: pH 6.5, 45 °C, partially purified enzyme.

Substrate in data set [2]: O=[N+]([O-])c1ccccc1O[C@@H]1O[C@H](CO)[C@@H](O[C@@H]2O[C@H](CO)[C@@H](O)[C@H](O)[C@H]2O)[C@H](O)[C@H]1O
The conditions noted are these: pH 6.0, 60 °C, partially purified enzyme, printed value differs between text and Table 3.

Substrate in data set [3]: O=[N+]([O-])c1ccccc1O[C@@H]1OC[C@@H](O)[C@H](O)[C@H]1O
The conditions noted are these: pH 6.0, 45 °C, partially purified enzyme, points at 20 mM and above excluded (substrate precipitation).

B1: AfsB (Cellulomonas fimi ATCC 484) (protein)
chain: MFPVRLTLDPAFRVGPVRRRTFGSFVEHLGRCVYTGIHDPGHPTADADGFRKDVLELTRELGVSTVRYPGGNFVSGYRWEDGVGPVEQRPTRLDLAWHSLEPNTVGVDEFMRWAALAEVEPMMAVNLGTRGVQEALDLLDYCNGTAPTYWADQRRANGATDPYAIKMWCLGNEMDGPWQIGSKTAHEYGRLAAETGRAMKMVDPTLELVACGSSGVVMPTFGEWERIVLSEAYEQVDYVSAHAYYWEEDGDLGSFLASATDMDHFVESVTATADAVRAHKKVSKRIHISFDEWNVWYQKRAESRPPTGDDWPVAPVLLEDRYNVADAVVVGNLLISLLRHTDRVHAASLAQLVNVIAPIMTEPGGRSWKQTIFHPFAQASRYAAGDVLQVAIDAPTYETARYGDAALVDAVATRDPETGATTLFAVNRSLTEPALLEVDTRALPGLRVLDASTLSNPDHTWAATADDDTSVAPRANTTAEIRDGRLTVQVPPVSWNVVRLGA
notes: full ORF as BioBrick, E. coli JM109, untagged; partially purified (DEAE-Sepharose, phenyl-agarose)
As to B1, in “purified protein [1]”, the Km is on record as 6.8 mM.

B2: XynF (Cellulomonas fimi ATCC 484) (protein)
chain: AGSTLQAAAAESGRYFGTAIAASRLSDGTYTGIANREFNMITAENEMKMDATEPNRGQFSYSNGDRIVNWARQNGKQVRGHALAWHSQQPGWMQNLSGTDLRNAMLNHVTQVATYYRGKIYAWDVVNEAYADGSSGARRDSNLQRTGNDWIEAAFRAARAADPNAKLCYNDYNTDNWSHAKTQGVYNMVKDFKARGVPIDCVGFQAHFNSGNPVPSNYHTTLQNFADLGVDVQITELDIEGSGSSQAQQYQGVVQACLAVSRCTGITVWGVRDTDSWRASGTPLLFDGSGNKKAAYTSVLNALNAGGTTTPTPNPTNPTPTPTPTNPGGGSPSCTATYSEGQKWGDRFNGTVTIRATTNISSWQSTVTVRSPQKIIATWNGSPTWDSSGNVMTMRPSGSGALAAGQSTSFGFTVQHNGNWTWPSVTCAAS
notes: ORF with TAT signal peptide and CBMII as BioBrick, E. coli JM109, untagged; partially purified (DEAE-, CM-Sepharose)
Take B2: the Km in “purified protein [2]” came to 58 mM.

B3: BxyF (Cellulomonas fimi ATCC 484) (protein)
chain: MTRRLVPELEVRRHLVEDYADFTQIPEAVVARWKAPFGPPEDWDLTVVDHTVPGPHGPVPVRVYTPVGTPPDGGRACLVWMHGGAFSWGDLDMAEAHEVARGVAGRADVVVVSVDYRLCPVMPELGGTVGDRVDERGEPVRFPVPQDDCAAVLDAVRADPARFGVDAARVAIGGASAGAFLAAAVTLRAVEDGRAPWQTLLVYPMLHPRVPALGTELAEAVEAAPRALQLPAWMVEATNRTVLGREPEPSDDEAFPGLAARLEGFPPTYVENGELDAFRASGERFSTRLRAAGVDVVEVTRSGVPHGHLDWVGFGPARDTLDALAQRLRAPSAADRQALDELRVDGAPASDAPLHHVWNRCVGAGRANEALRADWQAHLREAVDVLGVRSVRFHGLFHDDMFVYRSTYGGGFAPPEVLPEPLITFSYVDMVFDALLDAGARPFVELGFMPRELATQTETLFWWKAHCSPPTDMAEWVRLVSETVRHWIERYGLDEVRQWRFEVWNEPNLVPHFWTGTRTEYFALYEATARALKAIDLQLRVGGPSTSVFVPDARYAGETYDHAAEFATGRAPDPDALDWQPVWVRELVDYCAERDLPLDFLSTHLYPTDYAADGTGSGVTAIHRHVDATEQDLRLLQELIAASPYPDAELHITEWSSSPSSRDRTHDTLFAATYITRAFLKGAALADSISYWTFTDIFEEGGAGLGPFHGGFGFVNEQGIHKPTFHAVAMLNRLGDRVVHQDEHGIITRSSGDGHVSAVFLNYPAEMGTRGVEQHDTYAAARAYREIGTARRVRRTVAGLEPGTVFQVEVLDWEHGNAAEAWHQMGEPLNLTRAQTTELKTVADDLRRWTITVPDSGVLEIDLDLPAWAVASVAPVTPTPSPTTNDAPSPTSSRQG
notes: as for B1
B3: in “purified protein [3]”, the Km is recorded as 1.7 mM.

For the origin of these results see article PMC5892457, “Characterisation of novel biomass degradation enzymes from the genome of Cellulomonas fimi” (Enzyme and Microbial Technology, 2018).
